The target of the assay is recombinant EB1 (HS-AFM and microtubule experiments) (human) (UniProt Q15691).
Sequence of recombinant EB1 (HS-AFM and microtubule experiments) (human) (Q15691 whole entry): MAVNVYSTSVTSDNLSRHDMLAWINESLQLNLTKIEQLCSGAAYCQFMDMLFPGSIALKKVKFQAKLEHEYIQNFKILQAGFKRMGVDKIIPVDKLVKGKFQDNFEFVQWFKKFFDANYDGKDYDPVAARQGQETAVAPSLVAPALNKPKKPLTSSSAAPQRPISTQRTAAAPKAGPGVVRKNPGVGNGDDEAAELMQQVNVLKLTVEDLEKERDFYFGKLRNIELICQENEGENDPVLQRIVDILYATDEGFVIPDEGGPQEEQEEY

Sequence of 6xHis-tagged WT Ska1 (Q96BD8 whole entry): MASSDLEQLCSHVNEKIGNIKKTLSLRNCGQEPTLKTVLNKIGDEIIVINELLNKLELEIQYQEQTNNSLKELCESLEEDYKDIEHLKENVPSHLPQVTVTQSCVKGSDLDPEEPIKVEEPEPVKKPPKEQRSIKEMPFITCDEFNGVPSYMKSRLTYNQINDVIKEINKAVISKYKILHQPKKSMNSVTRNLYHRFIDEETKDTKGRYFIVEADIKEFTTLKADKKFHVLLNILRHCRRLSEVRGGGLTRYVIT

For “6xHis-tagged WT Ska1 (from UniProt Q96BD8 1-255) (natural protein)”, the localization of Ska1 on prepolymerized MTs in vitro in the presence of EB1 (1 uM), fluorescence microscopy: WT Ska1 against Ska1 ΔSHLP (0.5 uM each) worked out at 1.6 fold.

For the origin of these results see publication PMC9926122.
